Results as given in US10544159B2, “Artemisinin derivatives, methods for their preparation and their use as antimalarial agents” (priority 2012, dated 2020).
Values joined by “and” are separate entries in the source; they are usually repeats but may differ in a detail not shown here. Equal entries are not always repeated.

What was measured:
[1] = Total turnovers and regio-/stereoselectivity of P450 variants in artemisinin hydroxylation (analytical scale); format: biochemical; conditions: for Product distribution (%) 4: share of 6a-hydroxy-ART (4); for Product distribution (%) 4 / Product distribution (%) 3 / Product distribution (%) 2: 0.5 mM artemisinin, 0.5-1 μM P450, 12 hours; for Product distribution (%) 3: share of 7(R)-hydroxy-ART (3); for Product distribution (%) 2: share of 7(S)-hydroxy-ART (2); for TTN: total turnovers on artemisinin, NADPH cofactor regeneration system, analytical scale
Protocol: Determination of Total Turnovers and Regio- and Stereoselectivity of the P450 Variants.
After 12 hours, 9-fluorenone was added to the mixtures as internal standard. The hydroxylation products were functionalized with benzoyl chloride followed by HPLC analysis. TTN values were calculated based on the total amount of hydroxylated products in the reactions as quantified based on the calibration curves generated using purified 2-4. The enzyme regio- and stereoselectivity was determined based on the area under the curve of the chromatographic peaks corresponding to the hydroxylation products 2, 3, and 4. Mean and standard deviation values reported for P450 variants in Table 1 were calculated from experiments performed at least in triplicate.

[2] = KD for artemisinin binding to P450 variants (heme spin-shift titration); conditions: binding of artemisinin to 3 μM purified P450, pH 8.0
Protocol: Determination of KD Values for Artemisinin Binding.
Binding experiments were performed using 3 μM purified P450 in potassium phosphate buffer (50 mM, pH 8.0) by titrating increasing amounts of artemisinin (5 μM to 1 mM) from an ethanol stock solution (50 mM). At each concentration, a difference spectrum from 350 to 500 nm was recorded and binding curves were generated by plotting the change in absorbance at 390 nm and 420 nm corresponding to the high-spin and low-spin state of the enzyme, respectively, against the artemisinin concentration. KD values were calculated using Sigma Plot via non-linear fitting of the experimental binding curves to an equation describing a standard 1:1 binding interaction. Reported mean and standard deviation values were calculated from experiments performed at least in triplicate.

[3] = format: biochemical; conditions: 250 μM artemisinin, rates measured over initial 30 seconds
Protocol: Measurement of Product Formation Rates and Coupling Efficiency.
Initial product formation rates were measured from 1 mL-scale reactions containing 250 μM artemisinin, 0.1-0.5 μM purified P450, and 200 μM NADPH in potassium phosphate buffer (50 mM, pH 8.0) at room temperature. After 30 seconds, the samples were extracted with dichloromethane and subjected to benzoyl chloride derivatization followed by HPLC analysis as described above. Cofactor oxidation rate in the presence of artemisinin was measured by monitoring NADPH depletion at 340 nm (ε=6.22 mM^−1 cm^−1) using 0.1 μM purified P450, 250 μM artemisinin, and 200 μM NADPH. Coupling efficiency was calculated from the ratio between the initial product formation rate and the initial NADPH oxidation rate. Reported mean and standard deviation values were calculated from experiments performed at least in triplicate.

B1: IV-H4: FL#62-derived P450 variant (SEQ ID NO. 9), 7(S)-hydroxylating (protein)
chain: MTIKEMPQPKTFGELKNLPLLNTDKPVQALMKIADELGEIFKFEAPGRVTRYLSSQRLIKEACDESRFDKNLSQALKFSRDVAGDGLATSWTHEKNWKKAHNILLPSFSQQAMKGYHAMMVDIAVQLVQKWERLNADEHIEVSEDMTRLTLDTIGLCGFNYRFNSFYRDQPHPFIISMVRTLDEVMNKLQRANPDDPVYDENKRQCQEDIKVMNDLVDKIIADRKARGEQSDDLLTQMLNGKDPETGEPLDDGNISYQIITFLIAGHETTSGLLSFALYFLVKNPHVLQKVAEEAARVLVDPVPSYKQVKQLKYVGMVLNEALRLWPTAPAFSLYAKEDTVLGGEYPLEKGDEVMVLIPQLHRDKTIWGDDVEEFRPERFENPSAIPQHAFKPFGNGQRACIGQQFALHEATLVLGMMLKHFDFEDHTNYELDIKETLTLKPEGFVVKAKSKKIPLGGIPSPSTEQSAKKVRKKAENAHNTPLLVLYGSNMGTAEGTARDLADIAMSKGFAPQVATLDSHAGNLPREGAVLIVTASYNGHPPDNAKQFVDWLDQASADEVKGVRYSVFGCGDKNWATTYQKVPAFIDETLAAKGAENIADRGEADASDDFEGTYEEWREHMWSDVAAYFNLDIENSEDNKSTLSLQFVDSAADMPLAKMHGAFSTNVVASKELQQPGSARSTRHLEIELPKEASYQEGDHLGVIPRNYEGIVNRVTARFGLDASQQIRLEAEEEKLAHLPLAKTVSVEELLQYVELQDPVTRTQLRAMAAKTVCPPHKVELEALLEKQAYKEQVLAKRLTMLELLEKYPACEMKFSEFIALLPSIRPRYYSISSSPRVDEKQASITVSVVSGEAWSGYGEYKGIASNYLAELQEGDTITCFISTPQSEFTLPKDPETPLIMVGPGTGVAPFRGFVQARKQLKEQGQSLGEAHLYFGCRSPHEDYLYQEELENAQSEGIITLHTAFSRMPNQPKTYVQHVMEQDGKKLIELLDQGAHFYICGDGSQMAPAVEATLMKSYADVHQVSEADARLWLQQLEEKGRYAKDVWAG
For B1, the “(S)-stereoselectivity for C7 hydroxylation” value ([1]; artemisinin as substrate) was > 99.9%, the “regioselectivity for C7 hydroxylation” value ([1]; artemisinin as substrate) was > 99.9% and the “Product distribution (%) 4” value [1] was 0%. The “Product distribution (%) 3” value [1] was 0%, the “Product distribution (%) 2” value [1] was 100% and the TTN [1] was 362 and 362 ± 15. For the same molecule, the Kd [2] was 53 ± 11 µM and the Product formation rate [3] was 100 ± 4 Mole product per mole P450 per minute.

B2: II-E2: FL#62-derived P450 variant (SEQ ID NO. 13) (protein)
chain: MTIKEMPQPKTFGELKNLPLLNTDKPVQALMKIADELGEIFKFEAPGRVTRYLSSQRLIKEACDESRFDKNLSQALKFNRDFAGDGLATSWTHEKNWKKAHNILLPSFSQQAMKGYHAMMVDIAVQLVQKWERLNADEHIEVSEDMTRLTLDTIGLCGFNYRFNSFYRDQPHPFIISMVRTLDEVMNKLQRANPDDPVYDENKRQCQEDIKVMNDLVDKIIADRKARGEQSDDLLTQMLNGKDPETGEPLDDGNISYQIITFLIAGHETTSGLLSFALYFLVKNPHVLQKVAEEAARVLVDPVPSYKQVKQLKYVGMVLNEALRLWPTAPAFSLYAKEDTVLGGEYPLEKGDEVMVLIPQLHRDKTIWGDDVEEFRPERFENPSAIPQHAFKPFGNGQRACIGQQFALHEATLVLGMMLKHFDFEDHTNYELDIKETLTLKPEGFVVKAKSKKIPLGGIPSPSTEQSAKKVRKKAENAHNTPLLVLYGSNMGTAEGTARDLADIAMSKGFAPQVATLDSHAGNLPREGAVLIVTASYNGHPPDNAKQFVDWLDQASADEVKGVRYSVFGCGDKNWATTYQKVPAFIDETLAAKGAENIADRGEADASDDFEGTYEEWREHMWSDVAAYFNLDIENSEDNKSTLSLQFVDSAADMPLAKMHGAFSTNVVASKELQQPGSARSTRHLEIELPKEASYQEGDHLGVIPRNYEGIVNRVTARFGLDASQQIRLEAEEEKLAHLPLAKTVSVEELLQYVELQDPVTRTQLRAMAAKTVCPPHKVELEALLEKQAYKEQVLAKRLTMLELLEKYPACEMKFSEFIALLPSIRPRYYSISSSPRVDEKQASITVSVVSGEAWSGYGEYKGIASNYLAELQEGDTITCFISTPQSEFTLPKDPETPLIMVGPGTGVAPFRGFVQARKQLKEQGQSLGEAHLYFGCRSPHEDYLYQEELENAQSEGIITLHTAFSRMPNQPKTYVQHVMEQDGKKLIELLDQGAHFYICGDGSQMAPAVEATLMKSYADVHQVSEADARLWLQQLEEKGRYAKDVWAG
For B2, the “regioselectivity toward 6a-hydroxylation” value ([1]; artemisinin as substrate) was 48%, the “Product distribution (%) 4” value [1] was 48% and the “Product distribution (%) 3” value [1] was 30%. The “Product distribution (%) 2” value [1] was 22%, the TTN [1] was 393 and 393 ± 25 and the Kd [2] was 164 ± 18 µM. For the same molecule, the Product formation rate [3] was 148 ± 3 Mole product per mole P450 per minute.

B3: CYP102A1: naturally occurring wild-type cytochrome P450 CYP102A1 from Bacillus megaterium (SEQ ID NO.: 1) (protein, listed as Bacillus megaterium)
chain: MTIKEMPQPKTFGELKNLPLLNTDKPVQALMKIADELGEIFKFEAPGRVTRYLSSQRLIKEACDESRFDKNLSQALKFVRDFAGDGLFTSWTHEKNWKKAHNILLPSFSQQAMKGYHAMMVDIAVQLVQKWERLNADEHIEVPEDMTRLTLDTIGLCGFNYRFNSFYRDQPHPFITSMVRALDEAMNKLQRANPDDPAYDENKRQFQEDIKVMNDLVDKIIADRKASGEQSDDLLTHMLNGKDPETGEPLDDENIRYQIITFLIAGHETTSGLLSFALYFLVKNPHVLQKAAEEAARVLVDPVPSYKQVKQLKYVGMVLNEALRLWPTAPAFSLYAKEDTVLGGEYPLEKGDELMVLIPQLHRDKTIWGDDVEEFRPERFENPSAIPQHAFKPFGNGQRACIGQQFALHEATLVLGMMLKHFDFEDHTNYELDIKETLTLKPEGFVVKAKSKKIPLGGIPSPSTEQSAKKVRKKAENAHNTPLLVLYGSNMGTAEGTARDLADIAMSKGFAPQVATLDSHAGNLPREGAVLIVTASYNGHPPDNAKQFVDWLDQASADEVKGVRYSVFGCGDKNWATTYQKVPAFIDETLAAKGAENIADRGEADASDDFEGTYEEWREHMWSDVAAYFNLDIENSEDNKSTLSLQFVDSAADMPLAKMHGAFSTNVVASKELQQPGSARSTRHLEIELPKEASYQEGDHLGVIPRNYEGIVNRVTARFGLDASQQIRLEAEEEKLAHLPLAKTVSVEELLQYVELQDPVTRTQLRAMAAKTVCPPHKVELEALLEKQAYKEQVLAKRLTMLELLEKYPACEMKFSEFIALLPSIRPRYYSISSSPRVDEKQASITVSVVSGEAWSGYGEYKGIASNYLAELQEGDTITCFISTPQSEFTLPKDPETPLIMVGPGTGVAPFRGFVQARKQLKEQGQSLGEAHLYFGCRSPHEDYLYQEELENAQSEGIITLHTAFSRMPNQPKTYVQHVMEQDGKKLIELLDQGAHFYICGDGSQMAPAVEATLMKSYADVHQVSEADARLWLQQLEEKGRYAKDVWAG
With B3 the TTN [1] was < 1.

B4: FL#41: CYP102A1-derived engineered P450 variant (SEQ ID NO. 4) (protein)
chain: MTIKEMPQPKTFGELKNLPLLNTDKPVQALMKIADELGEIFKFEAPGRVTRYLSSQRLIKEACDESRFDKNLSQALKFVRDFAGDGLATSWTHEKNWKKAHNILLPSFSQQAMKGYHAMMVDIAVQLVQKWERLNADEHIEVPEDMTRLTLDTIGLCGFNYRFNSFYRDQPHPFITSMVRALDEAMNKLQRANPDDPAYDENKRQFQEDIKVMNDLVDKIIADRKASGEQSDDLLTHMLNGKDPETGEPLDDENIRYQIITFLIAGHETTSGLLSFALYFLVKNPHVLQKAAEEAARVLVDPVPSYKQVKQLKYVGMVLNEALRLWPTAPAFSLYAKEDTVLGGEYPLEKGDELMVLIPQLHRDKTIWGDDVEEFRPERFENPSAIPQHAFKPFGNGQRACIGQQFALHEATLVLGMMLKHFDFEDHTNYELDIKETLTLKPEGFVVKAKSKKIPLGGIPSPSTEQSAKKVRKKAENAHNTPLLVLYGSNMGTAEGTARDLADIAMSKGFAPQVATLDSHAGNLPREGAVLIVTASYNGHPPDNAKQFVDWLDQASADEVKGVRYSVFGCGDKNWATTYQKVPAFIDETLAAKGAENIADRGEADASDDFEGTYEEWREHMWSDVAAYFNLDIENSEDNKSTLSLQFVDSAADMPLAKMHGAFSTNVVASKELQQPGSARSTRHLEIELPKEASYQEGDHLGVIPRNYEGIVNRVTARFGLDASQQIRLEAEEEKLAHLPLAKTVSVEELLQYVELQDPVTRTQLRAMAAKTVCPPHKVELEALLEKQAYKEQVLAKRLTMLELLEKYPACEMKFSEFIALLPSIRPRYYSISSSPRVDEKQASITVSVVSGEAWSGYGEYKGIASNYLAELQEGDTITCFISTPQSEFTLPKDPETPLIMVGPGTGVAPFRGFVQARKQLKEQGQSLGEAHLYFGCRSPHEDYLYQEELENAQSEGIITLHTAFSRMPNQPKTYVQHVMEQDGKKLIELLDQGAHFYICGDGSQMAPAVEATLMKSYADVHQVSEADARLWLQQLEEKGRYAKDVWAG
For B4, the TTN [1] was “about 50”.
